Laboratory results as given in PMC8861878 (The Journal of pharmacy and pharmacology, 2020).

B1: UGT1A6 (Homo sapiens) (protein)
chain: DKLLVVPQDGSHWLSMKDIVEVLSDRGHEIVVVVPEVNLLLKESKYYTRKIYPVPYDQEELKNRYQSFGNNHFAERSFLTAPQTEYRNNMIVIGLYFINCQSLLQDRDTLNFFKESKFDALFTDPALPCGVILAEYLGLPSVYLFRGFPCSLEHTFSRSPDPVSYIPRCYTKFSDHMTFSQRVANFLVNLLEPYLFYCLFSKYEELASAVLKRDVDIITLYQKVSVWLLRYDFVLEYPRPVMPNMVFIGGINCKKRKDLSQEFEAYINASGEHGIVVFSLGSMVSEIPEKKAMAIADALGKIPQTVLWRYTGTRPSNLANNTILVKWLPQNDLLGHPMTRAFITHAGSHGVYESICNGVPMVMMPLFGDQMDNAKRMETKGAGVTLNVLEMTSEDLENALKAVINDKSYKENIMRLSSLHKDRPVEPLDLAVFWVEFVMRHKGAPHLRPAAHDLTWYQYHSLDVIGFLLAVVLTVAFITFKCCAYGYRKCLGKKGRVKKAHKSKTH
B2: CYP1A2 (Homo sapiens) (protein)
chain: MALSQSVPFSATELLLASAIFCLVFWVLKGLRPRVPKGLKSPPEPWGWPLLGHVLTLGKNPHLALSRMSQRYGDVLQIRIGSTPVLVLSRLDTIRQALVRQGDDFKGRPDLYTSTLITDGQSLTFSTDSGPVWAARRRLAQNALNTFSIASDPASSSSCYLEEHVSKEAKALISRLQELMAGPGHFDPYNQVVVSVANVIGAMCFGQHFPESSDEMLSLVKNTHEFVETASSGNPLDFFPILRYLPNPALQRFKAFNQRFLWFLQKTVQEHYQDFDKNSVRDITGALFKHSKKGPRASGNLIPQEKIVNLVNDIFGAGFDTVTTAISWSLMYLVTKPEIQRKIQKELDTVIGRERRPRLSDRPQLPYLEAFILETFRHSSFLPFTIPHSTTRDTTLNGFYIPKKCCVFVNQWQVNHDPELWEDPSEFRPERFLTADGTAINKPLSEKMMLFGMGKRRCIGEVLAKWEIFLFLAILLQQLEFSVPPGVKVDLTPIYGLTMKHARCEHVQARLRFSIN
B3: UGT1A1 (Homo sapiens) (protein)
chain: HAGKILLIPVDGSHWLSMLGAIQQLQQRGHEIVVLAPDASLYIRDGAFYTLKTYPVPFQREDVKESFVSLGHNVFENDSFLQRVIKTYKKIKKDSAMLLSGCSHLLHNKELMASLAESSFDVMLTDPFLPCSPIVAQYLSLPTVFFLHALPCSLEFEATQCPNPFSYVPRPLSSHSDHMTFLQRVKNMLIAFSQNFLCDVVYSPYATLASEFLQREVTVQDLLSSASVWLFRSDFVKDYPRPIMPNMVFVGGINCLHQNPLSQEFEAYINASGEHGIVVFSLGSMVSEIPEKKAMAIADALGKIPQTVLWRYTGTRPSNLANNTILVKWLPQNDLLGHPMTRAFITHAGSHGVYESICNGVPMVMMPLFGDQMDNAKRMETKGAGVTLNVLEMTSEDLENALKAVINDKSYKENIMRLSSLHKDRPVEPLDLAVFWVEFVMRHKGAPHLRPAAHDLTWYQYHSLDVIGFLLAVVLTVAFITFKCCAYGYRKCLGKKGRVKKAHKSKTH
B4: CYP2C19 (Homo sapiens) (protein)
chain: MDPFVVLVLCLSCLLLLSIWRQSSGRGKLPPGPTPLPVIGNILQIDIKDVSKSLTNLSKIYGPVFTLYFGLERMVVLHGYEVVKEALIDLGEEFSGRGHFPLAERANRGFGIVFSNGKRWKEIRRFSLMTLRNFGMGKRSIEDRVQEEARCLVEELRKTKASPCDPTFILGCAPCNVICSIIFQKRFDYKDQQFLNLMEKLNENIRIVSTPWIQICNNFPTIIDYFPGTHNKLLKNLAFMESDILEKVKEHQESMDINNPRDFIDCFLIKMEKEKQNQQSEFTIENLVITAADLLGAGTETTSTTLRYALLLLLKHPEVTAKVQEEIERVIGRNRSPCMQDRGHMPYTDAVVHEVQRYIDLIPTSLPHAVTCDVKFRNYLIPKGTTILTSLTSVLHDNKEFPNPEMFDPRHFLDEGGNFKKSNYFMPFSAGKRICVGEGLARMELFLFLTFILQNFNLKSLIDPKDLDTTPVVNGFASVPPFYQLCFIPV

Tests used:
[1] = substrate: CC(C)=CCc1c(O)ccc2c1O[C@H](c1ccc(O)cc1)CC2=O; experiment: cells, lysate or membranes named; format: in vitro ADME, human; conditions: substrate inhibition model, pH 7.4, 37.0 °C
[2] = substrate: CC(C)=CCc1c(O)ccc2c1O[C@H](c1ccc(O)cc1)CC2=O; experiment: not read; conditions: substrate inhibition model, pH 7.4, 37.0 °C

Row | Protein | K0.5 ([1]; other: formation of G1) [µM] | Vmax ([1]; other: formation of G1) [µmol/min/mg] | Vmax/Km ([1]; other: formation of G1) [µL/min/mg] | K0.5 ([1]; other: formation of G2) [µM] | Vmax ([1]; other: formation of G2) [µmol/min/mg] | Vmax/Km ([1]; other: formation of G2) [µL/min/mg] | K0.5 ([2]; other: formation of M1) [µM] | Vmax ([2]; other: formation of M1) [µmol/min/mg] | Vmax/Km ([2]; other: formation of M1) [µL/min/mg] | K0.5 ([2]; other: formation of M3) [µM] | Vmax ([2]; other: formation of M3) [µmol/min/mg] | Vmax/Km ([2]; other: formation of M3) [µL/min/mg]
1 | B1 | 67.66 ± 16.32 | 0.00382 | 56.5 | 31.85 ± 6.28 | 0.000342 | 10.7 |  |  |  |  |  | 
2 | B2 |  |  |  |  |  |  | 5.08 ± 0.54 | 0.000312 | 61.4 | 19.81 ± 9.47 | 0.000173 | 8.75
3 | B3 | 41.84 ± 8.25 |  |  |  |  |  |  |  |  |  |  | 
4 | B4 |  |  |  |  |  |  | 56.54 ± 16.3 | 0.00252 | 44.5 | 16.81 ± 5.02 | 0.0013 | 77.3
